Like-named read-outs stand apart in the source and are kept apart here. Blank lines part the entries; values can stand above or below the molecule they belong to.
Experiments:
[1] = biological target: MfArtemin-MMH (cynomolgous monkey (Macaca fascicularis)); experiment: cell-based or functional assay
hArtemin-MMH [2] = biological target: T1, hArtemin-MMH (human); experiment: cell-based or functional assay
T1 chain: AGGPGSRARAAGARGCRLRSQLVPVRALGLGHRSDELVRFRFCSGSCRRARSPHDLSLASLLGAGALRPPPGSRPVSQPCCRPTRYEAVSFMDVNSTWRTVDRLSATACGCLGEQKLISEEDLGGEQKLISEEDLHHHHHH

mArtemin-MMH [3] = biological target: T2, mArtemin-MMH (mouse); experiment: cell-based or functional assay
T2 chain: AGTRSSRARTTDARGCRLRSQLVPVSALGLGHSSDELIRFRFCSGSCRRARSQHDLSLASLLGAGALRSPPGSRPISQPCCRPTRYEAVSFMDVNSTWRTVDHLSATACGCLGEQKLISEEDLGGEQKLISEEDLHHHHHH

hArtemin-MMH [4] = biological target: T1, hArtemin-MMH; experiment: blocking ELISA, 75 pM hARTN.mmh binding to plate-coated hGFRa3.hFc
mArtemin-MMH [5] = biological target: T2, mArtemin-MMH; experiment: blocking ELISA, 150 pM msARTN.mmh binding to plate-coated hGFRa3.hFc
[6] = biological target: MfArtemin-MMH (cynomolgous monkey (Macaca fascicularis)); experiment: blocking ELISA, 400 pM mfARTN.mmh binding to plate-coated hGFRa3.hFc
[7] = biological target: MfArtemin-MMH (cynomolgous monkey (Macaca fascicularis)); experiment: SPR Biacore T200, MfArtemin-MMH captured by anti-myc mAb, mAb injected, 25 C
hArtemin-MMH [8] = biological target: T1, hArtemin-MMH; experiment: SPR Biacore T200, hArtemin-MMH captured by anti-myc mAb, mAb injected, 25 C
Method: (§1) The equilibrium dissociation constant (KD) for Artemin binding to each of Artemin monoclonal antibodies (mAbs) H4H33331P, H4H33335P, H4H33336P, and H4H33349P was determined using a real-time surface plasmon resonance Biacore T200 biosensor. All binding studies were performed in 10 mM HEPES, 150 mM NaCl, 3 mM EDTA, and 0.05% v/v Surfactant Tween-20, pH 7.4 (HBS-ET) running buffer at 25° C. The Biacore CM4 sensor chip surface was first derivatized by amine coupling with anti-myc mAb to capture hArtemin-MMH, MfArtemin-MMH, or mArtemin-MMH. Different concentrations of Artemin mAbs (60-2.2 nM, 3-fold serial dilution) prepared in […] running buffer were injected over the Artemin-captured surfaces for 3 min at a flow rate of 50 μL/min and their dissociation in HBS-ET running buffer was monitored for 5 minutes. At the end of each cycle, the Artemin-captured surfaces were regenerated using a 6 sec injection of 20 mM phosphoric acid.
(§2) The association rate (kₐ) and dissociation rate (kd) were determined by fitting the real-time binding sensorgrams to a 1:1 binding model with mass transport limitation using Scrubber 2.0c curve-fitting software. Binding dissociation equilibrium constant (KD) and dissociative half-life (t½) were calculated from the kinetic rates as: KD (M)=kd/kₐ, and t_{1/2} (min)=[In2/(60*kd)].

mArtemin-MMH [9] = biological target: T2, mArtemin-MMH; experiment: SPR Biacore T200, mArtemin-MMH captured by anti-myc mAb, mAb injected, 25 C
Method: as §1, §2

MfArtemin-MMH [10] = biological target: T3, MfArtemin-MMH (cynomolgous monkey (Macaca fascicularis)); experiment: cell-based or functional assay
T3 chain: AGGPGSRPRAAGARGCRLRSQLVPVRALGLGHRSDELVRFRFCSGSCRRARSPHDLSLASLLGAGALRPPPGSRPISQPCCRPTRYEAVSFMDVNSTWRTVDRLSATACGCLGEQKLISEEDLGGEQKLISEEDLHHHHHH

hArtemin-MMH [11] = biological target: T1, hArtemin-MMH; experiment: BLI (Octet HTX), mAb captured on AHC tips, artemin at 15 nM, 25 C
Method: (§3) The entire experiment was performed at 25° C. in 10 mM HEPES, 150 mM NaCl, 3 mM EDTA, 0.02% NaN3 and 0.05% v/v Surfactant Tween-20, 1 mg/mL BSA, pH7.4 (HBS-EBT) buffer with the plate shaking at a speed of 1000 rpm. Different Artemin mAbs were first captured onto anti-human antibody (AHC) coated Octet biosensor tips (Fortebio Inc, #18-5064) by submerging the biosensor tips for 40 seconds in wells containing 2 μg/mL of Artemin mAb. […] All the Artemin and Artemin mAb samples were prepared in HBS-EBT buffer. The real-time binding response was monitored during the entire course of the experiment and the binding response at the end of every step was recorded.

MfArtemin-MMH [12] = biological target: T3, MfArtemin-MMH; experiment: as above
Method: as §3

mArtemin-MMH [13] = biological target: T2, mArtemin-MMH; experiment: as above
Method: as §3

hArtemin-MMH [14] = biological target: T1, hArtemin-MMH; experiment: BLI (Octet HTX), mAb captured on AHC tips, artemin at 30 nM, 25 C
Method: as §3

MfArtemin-MMH [15] = biological target: T3, MfArtemin-MMH; experiment: as above
Method: as §3

mArtemin-MMH [16] = biological target: T2, mArtemin-MMH; experiment: as above
Method: as §3

hArtemin-MMH [17] = biological target: T1, hArtemin-MMH; experiment: BLI (Octet HTX), mAb captured on AHC tips, artemin at 7.5 nM, 25 C
Method: as §3

MfArtemin-MMH [18] = biological target: T3, MfArtemin-MMH; experiment: as above
Method: as §3

mArtemin-MMH [19] = biological target: T2, mArtemin-MMH; experiment: as above
Method: as §3

hArtemin-MMH [20] = biological target: T1, hArtemin-MMH; experiment: BLI (Octet HTX), mAb captured on AHC tips, artemin at 3.75 nM, 25 C
Method: as §3

MfArtemin-MMH [21] = biological target: T3, MfArtemin-MMH; experiment: as above
Method: as §3

mArtemin-MMH [22] = biological target: T2, mArtemin-MMH; experiment: as above
Method: as §3

MfArtemin-MMH [23] = biological target: T3, MfArtemin-MMH; experiment: SPR Biacore T200, MfArtemin-MMH captured by anti-myc mAb, mAb injected, 25 C
Method: as §1, §2

hArtemin-MMH [24] = biological target: T1, hArtemin-MMH; experiment: blocking ELISA, antibody blocks 75 pM hARTN.mmh binding to plate-coated hGFRa3.hFc
Method: (§4) Experiments were carried out using the following procedures. Plates were coated with hGFRa3.hFc at 2 μg/ml in PBS on a 96-well microtiter plate at 4° C. overnight for all three assays. […] In other microtiter plates, a constant amount of either 75 pM hARTN.mmh, 400 pM mfARTN.mmh, or 150 pM msARTN.mmh were separately bound with anti-ARTN antibodies and an irrelevant IgG4 antibody control at a serial dilution series from 0.0017 nM to 100 nM in PBS+0.5% BSA. After a one-hour incubation, the mixture solutions were transferred to microtiter plates coated with hGFRa3.hFc. After one hour of incubation at RT, the wells were washed with PBST, and plate-bound ARTN was detected with an anti-penta-His antibody conjugated with horseradish peroxidase (HRP) (Qiagen). The plates were then developed using TMB substrate solution (BD Biosciences, #555214) according to manufacturer's recommendation and absorbance at 450 nm was measured on a Victor X5 plate reader.
(§5) Binding data were analyzed using a sigmoidal dose-response model within Prism™ software (GraphPad). […] If the calculated IC50 value was below the LLOA, less than LLOA was reported. Percent blocking at 100 nM antibody was calculated based on the background-corrected binding signal observed at the highest antibody concentration tested using the formula listed below and reported for all tested antibodies: […]

mArtemin-MMH [25] = biological target: T2, mArtemin-MMH; experiment: blocking ELISA, antibody blocks 150 pM msARTN.mmh binding to plate-coated hGFRa3.hFc
Method: as §4, §5

MfArtemin-MMH [26] = biological target: T3, MfArtemin-MMH; experiment: blocking ELISA, antibody blocks 400 pM mfARTN.mmh binding to plate-coated hGFRa3.hFc
Method: as §4, §5

Max inhibition (%), SRE-luciferase reporter, 3 nM mfArtemin [1]: 10%
Max inhibition (%), SRE-luciferase reporter, 500 pM hArtemin (hArtemin-MMH [2]): 9%
Max inhibition (%), SRE-luciferase reporter, 1 nM mArtemin (mArtemin-MMH [3]): 1%
% Blocking with 100 nM Ab (hArtemin-MMH [4]): -3%
% Blocking with 100 nM Ab (mArtemin-MMH [5]): -31%
% Blocking with 100 nM Ab [6]: -28%
60 nM Artemin mAb Bound (RU) [7]: 0 RU
60 nM Artemin mAb Bound (RU) (hArtemin-MMH [8]): 0 RU
60 nM Artemin mAb Bound (RU) (mArtemin-MMH [9]): 0 RU
Molecule: Isotype Control mAb (antibody)

Max inhibition (%), SRE-luciferase reporter, 500 pM hArtemin (hArtemin-MMH [2]): 100%
Max inhibition (%), SRE-luciferase reporter, 3 nM mfArtemin (MfArtemin-MMH [10]): 100%
Max inhibition (%), SRE-luciferase reporter, 1 nM mArtemin (mArtemin-MMH [3]): 95%
Artemin Binding Response (nm) (hArtemin-MMH [11]): 0.11 nm
Artemin Binding Response (nm) (MfArtemin-MMH [12]): 0.04 nm
Artemin Binding Response (nm) (mArtemin-MMH [13]): 0.07 nm
Artemin Binding Response (nm) (hArtemin-MMH [14]): 0.11 nm
Artemin Binding Response (nm) (MfArtemin-MMH [15]): 0.09 nm
Artemin Binding Response (nm) (mArtemin-MMH [16]): 0.08 nm
Artemin Binding Response (nm) (hArtemin-MMH [17]): 0.07 nm
Artemin Binding Response (nm) (MfArtemin-MMH [18]): 0 nm
Artemin Binding Response (nm) (mArtemin-MMH [19]): 0.05 nm
Artemin Binding Response (nm) (hArtemin-MMH [20]): 0.02 nm
Artemin Binding Response (nm) (MfArtemin-MMH [21]): 0 nm
Artemin Binding Response (nm) (mArtemin-MMH [22]): 0.02 nm
60 nM Artemin mAb Bound (RU) (hArtemin-MMH [8]): 4 RU
Kd (hArtemin-MMH [8]): 2.22 nM
koff (hArtemin-MMH [8]): 0.00019 s⁻¹
kon (hArtemin-MMH [8]): 85300 M⁻¹ s⁻¹
t½ (hArtemin-MMH [8]): 1.02 h
60 nM Artemin mAb Bound (RU) (mArtemin-MMH [9]): 3 RU
60 nM Artemin mAb Bound (RU) (MfArtemin-MMH [23]): 3 RU
% Blocking with 100 nM Ab (hArtemin-MMH [24]): 65%
IC50 (hArtemin-MMH [24]): 0.505 nM
% Blocking with 100 nM Ab (mArtemin-MMH [25]): 63%
IC50 (mArtemin-MMH [25]): 0.0876 nM
% Blocking with 100 nM Ab (MfArtemin-MMH [26]): 71%
IC50 (MfArtemin-MMH [26]): 0.233 nM
B1: H4H33335P (antibody, human IgG4 S228P, kappa, V domains shown)
VH: EVQLVESGGGLVQPGGSLRLSCAASGFTFSSYDMHWVRQATGKGLEWVSTIDTAGDTYYPGSVKGRFTISRENAKNSLYLQMNSLRAGDTAVYYCARDGELELQGYFDLWGRGTLVTVSS
VL: DIQMTQSPSSLSASVGDRVTITCRASQIISIYLNWYQQKPGKAPKLLIYAASSLQSGVPSRFSGSGSGTDFTLTISSLQPEDFATYYCQQSYTTPLTFGGGTKVEIKR
notes: Fully human antibody; also called Artemin mAb; anti-ARTN antibody

Source: patent US20240352111A1 (Regeneron, published 2024)
